The results in this text go back to the supplement of paper PMC5998384.

Data set [1] deals with HeLa Kyoto. The data set is described as follows: melting temperature (median over replicates), in situ; higher = more thermally stable.
In data set [2] the test system is HeLa Kyoto. The data set can be described thus: thermal stability score vs G1/S (z-score of summed log2 fold changes over temperatures); higher = more thermally stable than in G1/S.
Data set [3] concerns HeLa Kyoto. The data set can be described thus: solubility change mitosis vs G1/S (difference of NP-40 vs SDS log2 ratios) (log2 ratio difference); higher = more soluble in mitosis.
The test system of data set [4] is HeLa Kyoto. The data set is described as follows: solubility in G1/S (NP-40 vs SDS abundance) (log2 ratio); higher = more soluble. As to conditions: cell cycle stage: G1/S.
Where [5] appears, read: cell cycle stage: early G1 (4.5 h after nocodazole release).
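For melting temperature (median over replicates), in situ in this document: HeLa Kyoto cells synchronized by double thymidine or nocodazole block, proteins quantified by TMT10plex mass spectrometry, three independent biological replicates.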
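For solubility change mitosis vs G1/S (difference of NP-40 vs SDS log2 ratios) in this document: synchronized HeLa Kyoto cells (double thymidine block for G1/S, nocodazole release for mitosis), protein amounts in NP-40 versus SDS lysates quantified by mass spectrometry, three biological replicates.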
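For solubility in G1/S (NP-40 vs SDS abundance) in this document: HeLa Kyoto cells arrested at G1/S by double thymidine block, proteins quantified by TMT10plex mass spectrometry in mild NP-40 versus SDS extracts, three biological replicates.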
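For thermal stability score vs G1/S (z-score of summed log2 fold changes over temperatures) in this document: synchronized HeLa Kyoto cells, proteins quantified by TMT10plex mass spectrometry, three biological replicates, mitosis taken 0.5 h after nocodazole release, G1/S directly after double thymidine block.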

As to “MAVELGVLLVRPRPGTGLGRVMRTLLLVLWLATRGSALYFHIGETEKKCFIEEIPDETMVIGNYRTQLYDKQREEYQPATPGLGMFVEVKDPEDKVILARQYGSEGRFTFTSHTPGEHQICLHSNSTKFSLFAGGMLRVHLDIQVGEHANDYAEIAAKDKLSELQLRVRQLVEQVEQIQKEQNYQRWREERFRQTSESTNQRVLWWSILQTLILVAIGVWQMRHLKSFFEAKKLV [TMED9]”, the melting temperature in the data set with HeLa Kyoto [1] (cell cycle stage: G1/S) worked out at 55.7 °C; with HeLa Kyoto [1] (cell cycle stage: mitosis), 56.7 °C. In addition, the figures for the thermal stability score with HeLa Kyoto [2] (setting [5]) and with HeLa Kyoto [2] (cell cycle stage: mitosis) were 1.59 and 1.3, respectively. Further, in the data set on HeLa Kyoto [3], the “solubility change mitosis (log2)” value turned out to be 0.0692. For the same sequence, the “solubility in G1/S (log2)” value in the data set on HeLa Kyoto [4] turned out to be 0.375.

For “MQNSHMDEYRNSSNGSTGNSSEVVVEHPTDFSTEIMNVTEMEQSPDDSPNVNASTEETEMASAVDLPVTLTETEANFPPEYEKFWKTVENNPQDFTGWVYLLQYVEQENHLMAARKAFDRFFIHYPYCYGYWKKYADLEKRHDNIKPSDEVYRRGLQAIPLSVDLWIHYINFLKETLDPGDPETNNTIRGTFEHAVLAAGTDFRSDRLWEMYINWENEQGNLREVTAIYDRILGIPTQLYSHHFQRFKEHVQNNLPRDLLTGEQFIQLRRELASVNGHSGDDGPPGDDLPSGIEDITDPAKLITEIENMRHRIIEIHQEMFNYNEHEVSKRWTFEEGIKRPYFHVKPLEKAQLKNWKEYLEFEIENGTHERVVVLFERCVISCALYEEFWIKYAKYMENHSIEGVRHVFSRACTIHLPKKPMVHMLWAAFEEQQGNINEARNILKTFEECVLGLAMVRLRRVSLERRHGNLEEAEHLLQDAIKNAKSNNESSFYAVKLARHLFKIQKNLPKSRKVLLEAIERDKENTKLYLNLLEMEYSGDLKQNEENILNCFDKAVHGSLPIKMRITFSQRKVEFLEDFGSDVNKLLNAYDEHQTLLKEQDSLKRKAENGSEEPEEKKAHTEDTTSSSTQMIDGDLQANQAVYNYSAWYQYNYQNPWNYGQYYPPPPT [PRPF39]”, the results for the melting temperature in the data set on HeLa Kyoto [1] (cell cycle stage: G1/S) and in the data set on HeLa Kyoto [1] (cell cycle stage: mitosis) were 47.2 °C and 50.4 °C, respectively. The thermal stability score in the data set with HeLa Kyoto [2] (setting [5]) was 1.54; with HeLa Kyoto [2] (cell cycle stage: mitosis), 2.13. Also, the “solubility change mitosis (log2)” value in the data set with HeLa Kyoto [3] is -0.157. Besides, the “solubility in G1/S (log2)” value with HeLa Kyoto [4] turned out to be 0.0352.

Turning to “MMQGEAHPSASLIDRTIKMRKETEARKVVLAWGLLNVSMAGMIYTEMTGKLISSYYNVTYWPLWYIELALASLFSLNALFDFWRYFKYTVAPTSLVVSPGQQTLLGLKTAVVQTTPPHDLAATQIPPAPPSPSIQGQSVLSYSPSRSPSTSPKFTTSCMTGYSPQLQGLSSGGSGSYSPGVTYSPVSGYNKLASFSPSPPSPYPTTVGPVESSGLRSRYRSSPTVYNSPTDKEDYMTDLRTLDTFLRSEEEKQHRVKLGSPDSTSPSSSPTFWNYSRSMGDYAQTLKKFQYQLACRSQAPCANKDEADLSSKQAAEEVWARVAMNRQLLDHMDSWTAKFRNWINETILVPLVQEIESVSTQMRRMGCPELQIGEASITSLKQAALVKAPLIPTLNTIVQYLDLTPNQEYLFERIKELSQGGCMSSFRWNRGGDFKGRKWDTDLPTDSAIIMHVFCTYLDSRLPPHPKYPDGKTFTSQHFVQTPNKPDVTNENVFCIYQSAINPPHYELIYQRHVYNLPKGRNNMFHTLLMFLYIIKTKESGMLGRVNLGLSGVNILWIFGE [TMEM209]”, the melting temperature in the data set on HeLa Kyoto [1] (cell cycle stage: G1/S) worked out at 52 °C; with HeLa Kyoto [1] (cell cycle stage: mitosis) it was 53.2 °C. Further, the thermal stability score in the data set on HeLa Kyoto [2] (setting [5]) came to 0.688; in the data set on HeLa Kyoto [2] (cell cycle stage: mitosis), 3.82. Also, the “solubility change mitosis (log2)” value with HeLa Kyoto [3] was -0.145. In the data set on HeLa Kyoto [4], the “solubility in G1/S (log2)” value worked out at 0.161.

In the data set on HeLa Kyoto [1] (cell cycle stage: G1/S), “MERAISPGLLVRALLLLLLLLGLAARTVAAGRARGLPAPTAEAAFGLGAAAAPTSATRVPAAGAVAAAEVTVEDAEALPAAAGEQEPRGPEPDDETELRPRGRSLVIISTLDGRIAALDPENHGKKQWDLDVGSGSLVSSSLSKPEVFGNKMIIPSLDGALFQWDQDRESMETVPFTVESLLESSYKFGDDVVLVGGKSLTTYGLSAYSGKVRYICSALGCRQWDSDEMEQEEDILLLQRTQKTVRAVGPRSGNEKWNFSVGHFELRYIPDMETRAGFIESTFKPNENTEESKIISDVEEQEAAIMDIVIKVSVADWKVMAFSKKGGHLEWEYQFCTPIASAWLLKDGKVIPISLFDDTSYTSNDDVLEDEEDIVEAARGATENSVYLGMYRGQLYLQSSVRISEKFPSSPKALESVTNENAIIPLPTIKWKPLIHSPSRTPVLVGSDEFDKCLSNDKFSHEEYSNGALSILQYPYDNGYYLPYYKRERNKRSTQITVRFLDNPHYNKNIRKKDPVLLLHWWKEIVATILFCIIATTFIVRRLFHPHPHRQRKESETQCQTENKYDSVSGEANDSSWNDIKNSGYISRYLTDFEPIQCLGRGGFGVVFEAKNKVDDCNYAIKRIRLPNRELAREKVMREVKALAKLEHPGIVRYFNAWLEAPPEKWQEKMDEIWLKDESTDWPLSSPSPMDAPSVKIRRMDPFATKEHIEIIAPSPQRSRSFSVGISCDQTSSSESQFSPLEFSGMDHEDISESVDAAYNLQDSCLTDCDVEDGTMDGNDEGHSFELCPSEASPYVRSRERTSSSIVFEDSGCDNASSKEEPKTNRLHIGNHCANKLTAFKPTSSKSSSEATLSISPPRPTTLSLDLTKNTTEKLQPSSPKVYLYIQMQLCRKENLKDWMNGRCTIEERERSVCLHIFLQIAEAVEFLHSKGLMHRDLKPSNIFFTMDDVVKVGDFGLVTAMDQDEEEQTVLTPMPAYARHTGQVGTKLYMSPEQIHGNSYSHKVDIFSLGLILFELLYPFSTQMERVRTLTDVRNLKFPPLFTQKYPCEYVMVQDMLSPSPMERPEAINIIENAVFEDLDFPGKTVLRQRSRSLSSSGTKHSRQSNNSHSPLPSN [EIF2AK3]” came in with a melting temperature of 51 °C. Moreover, the thermal stability score in the data set with HeLa Kyoto [2] (setting [5]) was -0.111; with HeLa Kyoto [2] (cell cycle stage: mitosis), 0.409. In the data set with HeLa Kyoto [3], the “solubility change mitosis (log2)” value was -0.0251. In the data set on HeLa Kyoto [4], the “solubility in G1/S (log2)” value worked out at 0.0589.

Consider “MADGGSERADGRIVKMEVDYSATVDQRLPECAKLAKEGRLQEVIETLLSLEKQTRTASDMVSTSRILVAVVKMCYEAKEWDLLNENIMLLSKRRSQLKQAVAKMVQQCCTYVEEITDLPIKLRLIDTLRMVTEGKIYVEIERARLTKTLATIKEQNGDVKEAASILQELQVETYGSMEKKERVEFILEQMRLCLAVKDYIRTQIISKKINTKFFQEENTEKLKLKYYNLMIQLDQHEGSYLSICKHYRAIYDTPCIQAESEKWQQALKSVVLYVILAPFDNEQSDLVHRISGDKKLEEIPKYKDLLKLFTTMELMRWSTLVEDYGMELRKGSLESPATDVFGSTEEGEKRWKDLKNRVVEHNIRIMAKYYTRITMKRMAQLLDLSVDESEAFLSNLVVNKTIFAKVDRLAGIINFQRPKDPNNLLNDWSQKLNSLMSLVNKTTHLIAKEEMIHNLQ [PSMD12]”, for which the figures for the melting temperature in the data set on HeLa Kyoto [1] (cell cycle stage: G1/S) and in the data set with HeLa Kyoto [1] (cell cycle stage: mitosis) were 52.3 °C and 51.6 °C, respectively. Further, the thermal stability score was determined as 2.61 with HeLa Kyoto [2] (setting [5]) and 2.56 with HeLa Kyoto [2] (cell cycle stage: mitosis). Besides, in the data set with HeLa Kyoto [3], the “solubility change mitosis (log2)” value was -0.104. The “solubility in G1/S (log2)” value in the data set with HeLa Kyoto [4] stood at 0.0925.
